Results reported in patent publication US20240076361A1.

Biological target: Tau from human Alzheimer's Disease brain lysate (Braak stage VI) (human), P10636
Experiment: ELISA on Tau captured from AD brain lysate, curve without blocking peptide
Conditions: remark: other sources report otherwise

Tau from human Alzheimer's Disease brain lysate (Braak stage VI) (human), P10636, sequence (P10636 other isoform, or with tags, fused parts or gaps limits assumed): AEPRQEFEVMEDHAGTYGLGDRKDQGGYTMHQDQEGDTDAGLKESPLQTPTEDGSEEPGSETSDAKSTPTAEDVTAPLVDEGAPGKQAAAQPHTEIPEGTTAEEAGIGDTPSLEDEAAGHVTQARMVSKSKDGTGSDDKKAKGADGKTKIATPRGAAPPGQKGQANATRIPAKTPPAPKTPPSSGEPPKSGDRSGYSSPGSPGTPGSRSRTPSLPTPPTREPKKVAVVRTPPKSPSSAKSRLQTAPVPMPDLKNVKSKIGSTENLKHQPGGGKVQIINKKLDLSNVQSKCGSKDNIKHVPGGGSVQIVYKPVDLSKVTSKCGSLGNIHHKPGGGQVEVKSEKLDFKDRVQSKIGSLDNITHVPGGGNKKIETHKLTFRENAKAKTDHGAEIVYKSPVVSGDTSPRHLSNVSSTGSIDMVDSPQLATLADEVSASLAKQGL

B1: PT3 comparator antibody (antibody)
chain 1: EVKLVESGGDLVKPGGSLKLSCAASGFTFSSYAMSWVRQNPEKRLEWVASISKGGNTYYPNSVKGRFTISRDNARNILYLQMSSLRSEDTALYYCARGWGDYGWFAYWGQVTLVTVSA
chain 2: DIKMTQSPSSMYASLGERVTITCKASQDINRYLNWFQQKPGKSPKTLIYRANRLLDGVPSRFSGSGSGQDYSLTISSLDYEDMGIYYCLQYDEFPLTFGDGTKLELK
modifications: here or on the partner: native phosphorylation and other post-translational modifications, not defined
- EC50 (read off the curve): 0.02 nM
